Measured values reported in the supplement of paper PMC10567573.
± gives the standard deviation.

Assay: protein stability index of a GFP-peptide fusion (GPS, HEK-293T) (PSI 1-6); higher = more stable
Settings: c terminus: a fixed tail appended
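Further: 24-mer peptide tiles fused after GFP, lentivirally expressed, FACS-sorted into six equal bins by GFP/DsRed ratio, decoded by Illumina sequencing, PSI is the read-weighted mean bin number.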

Sequence | protein stability index (treatment: DMSO) | protein stability index (treatment: MLN4924 1 uM, 8 h)
LVQDLVDSLKFAVLMWLLTYVGAL [RTN1] | 2.94 ± 0.2 | 2.85 ± 0.26
LVRGHRRRLLRRLSPSRGVAQCLR [ZSWIM9] | 3.2 ± 0.23 | 3.41 ± 0.25
LVTGGELFEDIVAREYYSEADASH [CAMK2A] | 3.92 ± 0.37 | 3.91 ± 0.17
LWVEERALLEGEKALWEDKTSLWE [CCDC70] | 2.6 ± 0.036 | 3 ± 0.11
LYCSTPTRTAEPAESSVPPVTSIG [SLC35F2] | 3.98 ± 0.25 | 4.08 ± 0.2
LYRDVMLETFGHLLSIGPELPKPE [ZNF8] | 2.26 ± 0.27 | 2.56 ± 0.46
LYSLAPTMGAVVLSSTLLSFSTAI [MFSD9] | 3.19 ± 0.47 | 2.96 ± 0.42
MAKRIGKDLSNTFAKLEKLTILAK [STX5] | 2.77 ± 0.69 | 2.77 ± 0.53
MAMVVSTWRDPQDEVPGSQGSQAS [NR2F2] | 4.05 ± 0.27 | 4.32 ± 0.25
MDEEKLKQLNCVEISALNGNRINV [DLC1] | 3.6 ± 0.34 | 3.67 ± 0.3
MEDGSLDITQSIEDDPLLDAQLLP [TMEM192] | 5.28 ± 0.24 | 5.18 ± 0.16
MEEAAVASVVLPARELQEALPEAP [BCL2L13] | 5.27 ± 0.15 | 5.51 ± 0.069
MENKAMYLHTVSDCDTSSICEDSF [SCARA5] | 4.46 ± 0.17 | 4.49 ± 0.22
MERLRELQRASILDMRRDHEEQLQ [FBF1] | 4.28 ± 0.28 | 4.42 ± 0.29
MFPVAPKPQDSSQPSDRLMTEKQQ [CEP70] | 5.28 ± 0.2 | 5.24 ± 0.11
MGANTSRKPPVFDENEDVNFDHFE [STK32A] | 5.11 ± 0.26 | 5.134 ± 0.042
MGATRCDFTLSKTNMARIREIMEK [CPXM2] | 2.96 ± 0.088 | 3.3 ± 0.31
MKQRDNCKIRIQRQLEIMGKEVSG [STX11] | 3.27 ± 0.18 | 3.39 ± 0.33
MLDFLSERPWIKRMIFKLFSQETV [APMAP] | 1.98 ± 0.3 | 1.82 ± 0.26
MNSLVSWQLLLFLCATHFGEPLEK [KISS1] | 3.18 ± 0.67 | 3.07 ± 0.51
MPVICGPEENYPSLQMSSAEMPHT [NANOGP8] | 4.47 ± 0.32 | 4.39 ± 0.24
MQKEDNQVDVRFFGHHHQRAWIPS [ZMYND11] | 3.05 ± 0.12 | 3.18 ± 0.32

Sequence | protein stability index (treatment: DMSO) | protein stability index (treatment: MLN4924 1 uM, 8 h)
MRDQYMRAGEGFIICYSITDRRSF [RIT1] | 2.37 ± 0.82 | 2.11 ± 0.38
MREYKLVVLGSGGVGKSALTVQFV [RAP1B] | 2.51 ± 0.53 | 2.8 ± 0.75
MSDTAVADTRRLNSKPQDLTDAYG [SNX12] | 4.96 ± 0.24 | 5.06 ± 0.14
MSREPTPPLPGDMSTGPIAESWCY [SPOPL] | 3.29 ± 0.32 | 3.37 ± 0.47
MSSEVSARRDAKKLVRSPSGLRMV [ZFYVE21] | 3.67 ± 0.091 | 3.58 ± 0.28
MSVSEIFVELQGFLAAEQDIREEI [TSN] | 2.39 ± 0.42 | 2.72 ± 0.26
MTTESGSDSESKPDQEAEPQEAAG [EPB41L3] | 5.62 ± 0.33 | 5.56 ± 0.45
MVESRYALLIVDSATALYRTDYSG [RAD51] | 3 ± 0.79 | 2.86 ± 0.71
MVPGTRHSAVLRDLRSGTLYSLTL [TNXB] | 2.91 ± 0.58 | 2.03 ± 0.52
MVPVENTEGPSLLNQKGTAVETEG [SLC2A12] | 5.62 ± 0.19 | 5.11 ± 0.3
NAREESLVEELSPASEKKPVPPSE [BCL2L13] | 5.33 ± 0.27 | 5.47 ± 0.14
NARLQAMWGQSLLPPVSTSFTTGG [TNXB] | 2.51 ± 0.29 | 2.89 ± 0.33
NCQSVAQMNLLQKYSLLKLTALLE [DLC1] | 2.25 ± 0.36 | 2.44 ± 0.11
NCSGPAPAAKPDPDGGRADEWACE [P3H4] | 5.36 ± 0.17 | 5.44 ± 0.16
NDFCSFYNILKTCRGHTLERSVFS [CARM1] | 2.78 ± 0.6 | 2.4 ± 0.3
NDNSSDLLYDDLYDDDIDDEDEEE [UBE2R2] | 5.61 ± 0.41 | 5.63 ± 0.18
NEKETMQSLNDRLASYLDRVRSLE [KRT18] | 3.61 ± 0.23 | 3.54 ± 0.28
NFCKEQAARISNKGKFSTDTKGKP [ZC2HC1A] | 3.78 ± 0.2 | 4.27 ± 0.31
NFGFDLLVTYTNRYIIFKRNTLNQ [GMCL1] | 2.1 ± 0.15 | 2.47 ± 0.56
NFQQPGFTSGTGHFTAMVWKNTKK [GLIPR2] | 3.74 ± 0.32 | 3.95 ± 0.067
NGIGAVLDFTHPKARDWFQGHLRR [MYORG] | 2.75 ± 0.34 | 2.64 ± 0.27
NHLNPEVKKSCWTEEEDRIICEAH [MYBL2] | 4.72 ± 0.1 | 4.81 ± 0.2

Sequence | protein stability index (treatment: DMSO) | protein stability index (treatment: MLN4924 1 uM, 8 h)
NIRPSSSGGYWVGMSTIRPNPGFS [APMAP] | 2.61 ± 1 | 2.65 ± 0.37
NKPREHIIDCGDIVWSLAFGSSVP [WSB1] | 2.17 ± 0.38 | 2.07 ± 0.2
NLAFGRRCEELEDARYKLHHHLHK [TEKT4] | 3.2 ± 0.22 | 3.2 ± 0.16
NLFEGMIWFIVPISCVICNDIMAY [CDS2] | 3.44 ± 0.44 | 3.26 ± 0.74
NLPKFCHECGTKYPVEWAKFCCEC [ZC2HC1A] | 5.275 ± 0.001 | 5.557 ± 0.049
NLVSVGYQAGKPDALTKLEQGEPL [ZNF649] | 4.39 ± 0.27 | 4.17 ± 0.4
NQEILLPGGITSHQLLGLFPSTSY [TNXB] | 2.58 ± 0.092 | 2.53 ± 0.27
NRQSSDKQNGRVAKVKGHRSQKHK [C18orf25] | 4.67 ± 0.18 | 4.55 ± 0.17
NSKKEEPQELLQSQDFVGEKLGSG [ATE1] | 5.51 ± 0.11 | 5.42 ± 0.23
NSLEMTPAVRQRVIEEAKTAFLLN [HMOX1] | 3.67 ± 0.2 | 3.63 ± 0.31
NSSGDIGKKEIKPFKRFLRKKSKP [SMOC2] | 4.15 ± 0.4 | 4.19 ± 0.68
NTHVSQVFNLFRTMGLRHLPVVNA [CLCN6] | 2.57 ± 0.39 | 2.12 ± 0.15
NVTELLRDVAAWGRARATGGDLEE [DNAAF3] | 3.63 ± 0.15 | 3.75 ± 0.31
NWLIKYDCPMDSSSSRDTDWVVVK [PI4K2A] | 2.83 ± 0.77 | 3.1 ± 0.17
NWPKNSNGVTQKASAPTYPSLYSS [NANOGP8] | 3.53 ± 0.21 | 3.65 ± 0.25
PADSAQLLSLNSLLPESGIVADIE [TFE3] | 4.93 ± 0.19 | 5.1 ± 0.19
PAQVHSSLSAGEKPGFLAPRDLPK [RASAL3] | 4.63 ± 0.34 | 4.77 ± 0.41
PARDYVVLRTWRTNLPKGACALLL [DLC1] | 2.47 ± 1.3 | 2.22 ± 0.4
PDHFDTAILFTRQDLCGVSTCDTL [ADAMTS4] | 2.83 ± 0.21 | 2.94 ± 0.4
PDPSVWSRRYTEMALPFFSLAEVR [MYORG] | 2.52 ± 0.31 | 2.45 ± 0.13
PDTGDNARLTYSIVGNQVQGAPAS [PCDHGC5] | 4.42 ± 0.37 | 4.52 ± 0.52
